Measurements: paper PMC10372164 (Molecular Therapy. Nucleic Acids, 2023)

Target: the molecule itself
Assay: SEC

B1: human ornithine transcarbamylase labeled with 3x FLAG at the C-terminus (enzyme, UniProt P00480 33-354, looked up)
chain: NKVQLKGRDLLTLKNFTGEEIKYMLWLSADLKFRIKQKGEYLPLLQGKSLGMIFEKRSTRTRLSTETGFALLGGHPCFLTTQDIHLGVNESLTDTARVLSSMADAVLARVYKQSDLDTLAKEASIPIINGLSDLYHPIQILADYLTLQEHYSSLKGLTLSWIGDGNNILHSIMMSAAKFGMHLQAATPKGYEPDASVTKLAEQYAKENGTKLLLTNDPLEAAHGGNVLITDTWISMGQEEEKKKRLQAFQGYQVTMKTAKVAASDWTFLHCLPRKPEEVDDEVFYSPRSLVFPEAENRKWTIMAVMVSLLTDYSPQLQKPKF
stoichiometry N: 3
